Source: patent US6790824B1, “Cytokines having neurotrophic activity” (Biopharm Gesellschaft zur biotechnologischen Entwicklung …, priority 1997, dated 2004)
“Also recorded” adds a separate entry of the source.

B1: GDF-5: bone morphogenetic protein like molecule, member of the TGF-β superfamily (protein, UniProt P43026 382-501, looked up)
Growth/differentiation factor …: APLATRQGKRPSKNLKARCSRKALHVNFKDMGWDDWIIAPLEYEAFHCEGLCEFPLRSHLEPTNHAVIQTLMNSMDPESTPPTCCVPTRLSPISILFIDSANNVVYKQYEDMVVESCGCR
B2: brain-derived neurotrophic factor (protein, UniProt P23560 19-247, looked up)
Neurotrophic factor BDNF …: APMKEANIRGQGGLAYPGVRTHGTLESVNGPKAGSRGLTSLADTFEHVIEELLDEDQKVRPNEENNKDADLYTSRVMLSSQVPLEPPLLFLLEEYKNYLDAANMSMRVRRHSDPARRGELSVCDSISEWVTAADKKTAVDMSGGTVTVLEKVPVSKGQLKQYFYETKCNPMGYTKEGCRGIDKRHWNSQCRTTQSYVRALTMDSKKRIGWRFIRIDTSCVCTLTIKRGR
B3: oncostatin M (protein, UniProt P13725 26-221, looked up)
Oncostatin-M: AAIGSCSKEYRVLLGQLQKQTDLMQDTSRLLDPYIRIQGLDVPKLREHCRERPGAFPSEETLRGLGRRGFLQTLNATLGCVLHRLADLEQRLPKAQDLERSGLNIEDLEKLQMARPNILGLRNNIYCMAQLLDNSDTAEPTKAGRGASQPPTPTPASDAFQRKLEGCRFLHGYHRFMHSVGRVFSKWGESPNRSRR
B4: BMP-12: rh BMP-12, bone morphogenetic protein (protein, UniProt Q7Z4P5 322-450, looked up)
Growth/differentiation factor …: TALAGTRTAQGSGGGAGRGHGRRGRSRCSRKPLHVDFKELGWDDWIIAPLDYEAYHCEGLCDFPLRSHLEPTNHAIIQTLLNSMAPDAAPASCCVPARLSPISILYIDAANNVVYKQYEDMVVEACGCR
B5: BMP-7: rh BMP-7, bone morphogenetic protein (protein, UniProt P18075 293-431, looked up)
Bone morphogenetic protein 7: STGSKQRSQNRSKTPKNQEALRMANVAENSSSDQRQACKKHELYVSFRDLGWQDWIIAPEGYAAYYCEGECAFPLNSYMNATNHAIVQTLVHFINPETVPKPCCAPTQLNAISVLYFDDSSNVILKKYRNMVVRACGCH
B6: CNTF: recombinant rat (rr) CNTF, established neurotrophic factor for CG neurons (protein, UniProt P20294 1-200, looked up)
Ciliary neurotrophic factor: MAFAEQTPLTLHRRDLCSRSIWLARKIRSDLTALMESYVKHQGLNKNINLDSVDGVPVASTDRWSEMTEAERLQENLQAYRTFQGMLTKLLEDQRVHFTPTEGDFHQAIHTLMLQVSAFAYQLEELMVLLEQKIPENEADGMPATVGDGGLFEKKLWGLKVLQELSQWTVRSIHDLRVISSHQMGISALESHYGAKDKQM
B7: neurotrophin-4 (protein, UniProt P34130 81-210, looked up)
Neurotrophin-4: GVSETAPASRRGELAVCDAVSGWVTDRRTAVDLRGREVEVLGEVPAAGGSPLRQYFFETRCKADNAEEGGPGAGGGGCRGVDRRHWVSECKAKQSYVRALTADAQGRVGWRWIRIDTACVCTLLSRTGRA
B8: BMP-6: rh BMP-6, bone morphogenetic protein (protein, UniProt P22004 375-513, looked up)
Bone morphogenetic protein 6: SASSRRRQQSRNRSTQSQDVARVSSASDYNSSELKTACRKHELYVSFQDLGWQDWIIAPKGYAANYCDGECSFPLNAHMNATNHAIVQTLVHLMNPEYVPKPCCAPTKLNAISVLYFDDNSNVILKKYRNMVVRACGCH
B9: BMP-4: rh BMP-4, bone morphogenetic protein (protein, UniProt P12644 293-408, looked up)
Bone morphogenetic protein 4: SPKHHSQRARKKNKNCRRHSLYVDFSDVGWNDWIVAPPGYQAFYCHGDCPFPLADHLNSTNHAIVQTLVNSVNSSIPKACCVPTELSAISMLYLDEYDKVVLKNYQEMVVEGCGCR
B10: BMP-11: rh BMP-11, bone morphogenetic protein (protein, UniProt O95390 299-407, looked up)
Growth/differentiation factor …: NLGLDCDEHSSESRCCRYPLTVDFEAFGWDWIIAPKRYKANYCSGQCEYMFMQKYPHTHLVQQANPRGSAGPCCTPTKMSPINMLYFNDKQQIIYGKIPGMVVDRCGCS

Key:
[1] = test system: embryonic chicken dorsal root ganglia (DRG) neurons; experiment: Survival of dissociated embryonic chick dorsal root ganglia (DRG) neurons, 48 h, counting of surviving neurons; type: cell-based; conditions: for survival promoting effect of the single factor: factor added alone, dose-response; for survival effect as share of the (maximal) NGF effect: single factor; for survival of DRG neurons in combination with NGF: NGF 10 ng/ml (saturating); for survival of DRG neurons in combination with NT-3: NT-3 10 ng/ml (saturating); for effect on DRG neuron survival when added together with GDF-5: factor at saturating concentration plus GDF-5 20 ng/ml
Method: Dissociated cultures of embryonic chicken dorsal root ganglia (DRG) were generated as described in details by Krieglstein and Unsicker (Neurochem. Res., 21(7) (1996) 843-850). Briefly, DRGs from white Leghorn chick embryos (day 8) were dissected in Ca^2+-Mg^2+ free Hanks' balanced salt solution. After incubation in 0.08% trypsin for 15 min ganglia were dissociated by trituration. Cells were seeded in polyomithin-laminin coated 96-well microtiter plates (A/2 Costar) at a density of 1,200 cells/well. Growth factors were applied at the time of plating in a final volume of […] Dulbecco's Modified Eagle's Medium supplemented with 0.25% bovine serum albumin, N1 additives and 100 U/ml penicillin. As a positive control, nerve growth factor (NGF) was used at the saturating concentration of 5 ng/ml. After 48 h of incubation at 37° C. in a humidified atmosphere containing 5% CO2, cultures were fixed with 2.5% glutaraldehyde. Neuronal cells were identified by their phase-bright and neurite-bearing morphologies and counted within 30% of the total surface area using phase contrast microscopy. In the first set of experiments we tested the survival promoting effect of several growth factors of the bone morphogenetic protein family.
(§1) Embryonic chick ciliary (CG), dorsal root (DRG), and sympathetic (SG) ganglia at embryonic day(s) (E) 8, 10, and 12, were dissected, freed from nerve roots and connective tissue and collected in CME. Ganglia were incubated in trypsin (ICN), washed and dissociated by trituration using fire-polished Pasteur pipettes. Cultures were set up in 96-well microtiter plates (Costar, A/2), precoated with poly-L-ornithine and laminin at a density of 1,200-1,500 cells/well in DMEM supplemented with N1 additives, 0.25% BSA, and 0.1% PSN (DME/N1) and incubated at 37° C. in a 5% CO2 incubator.
(§2) At appropriate times (CG: 24 h, DRG: 48 h, SG: 72 h) cultures were fixed by addition of 2.5% glutardialdehyde in phosphate buffered saline (PBS). Numbers of surviving neurons were determined by direct counting of 30% of the surface area using phase contrast microscopy.
Dissociated cultures of embryonic chicken dorsal root ganglia (DRGs) were generated as described in details by Krieglstein and Unsicker (Dev. Brain. Rees. 93 (1996) 10-17). Briefly, DRGs were dissected in Ca^2+-Mg^2+ free Hank's balanced salt solution (CMF). After incubation in 0.08% trypsin (BioWhittaker) for 15 min, ganglia were dissociated by gentle trituration using fire-polished Pasteur pipettes. Cells in suspension (neuron/non-neuron ratio 1:2) were seeded in polyomithin-laminin coated 96-well microtiter plates (A/2 Costar) at a density of 1,200 cells/well. Growth factors were applied at the time of plating in a final volume of 50 μl Dulbecco's Modified Eagle's Medium supplemented with 0.25% bovine serum albumin, N1 additives (Bottenstein et al., Exp. Cell Res. 125 (1980) 183-190) and 100 U/ml penicillin. As a positive control, nerve growth factor (NGF) was used at the saturating concentration of 10 ng/ml. After 48 h of incubation at 37° C. in a humidified atmosphere containing 5% CO2, cultures were fixed with 2.5% glutaraldehyde in phosphate buffered saline (PBS). Neuronal cells were identified by their phase-bright and neurite-bearing morphologies and counted within 30% of the total surface area using phase contrast microscopy. All experiments were performed in at least triplicate in two independent experiments. Data are presented as mean±SEM. Statistical comparisons were made with student's double t-test, ANOVA and MicrocalOrigin software. Differences were considered statistically significant at *P<0.05, **P<0.01, **P<0.001.

[2] = test system: chick ciliary ganglionic (CG) neurons; experiment: Survival of embryonic chick ciliary ganglionic (CG) neurons, 24 h, counting of surviving neurons; type: cell-based; conditions: for CG neuron survival with further addition of TGF-β: TGF-β 2.5 ng/ml, CNTF non-saturating, OSM, LIF, IL-6 at 10 ng/ml
Method: as §1, §2
Phosphatidylinositol-specific phospholipase C (PIPLC) is an enzyme that specifically cleaves glycosyl-phosphatidylinositol (GPI) linkages. Embryonic chick ciliary ganglionic neurons (E8) were isolated and seeded as described before. Neurons were incubated for 1 h at 37° C. with 1) 100 mU PIPLC or II) 100 mU PIPLC+2 ng/ml TGFβ or III) without enzyme and then growth factors were added. The number of surviving neurons was determined 24 h later.

Molecule | survival promoting effect of the single factor ([1]; E8 chick DRG, 48 h) | survival effect as share of the (maximal) NGF effect ([1]; E8 chick DRG, 48 h) | survival of DRG neurons in combination with NGF ([1]; E8, 48 h) | survival of DRG neurons in combination with NT-3 ([1]; E8, 48 h) | further results
B1 | promoted the survival of a very small neuron population | about 20% | significantly increased survival of DRG neurons beyond levels maintained by the single factors | significantly augmented the promoting effect of NT-3 | neuronal numbers, GDF-5 and NT-3 both at saturating concentrations ([1]; E8 chick DRG, 48 h): failed to increase neuronal numbers significantly above the levels of each single factor; increase in neuronal cell numbers ([1]; E8 chick DRG, 48 h, saturating concentration of 20 ng/ml, vs untreated): approximately two-fold; neuronal cell numbers, GDF-5 added to NGF ([1]; GDF-5 20 ng/ml plus NGF 5 ng/ml, E8, 48 h): significantly increased neuronal cell numbers above values obtained for each single factor; DRG neuron survival with addition of NT-3 ([1]; various concentrations of GDF-5 plus 2.5 ng/ml NT-3, E8, 48 h): significantly increased DRG neuron survival above the NT-3 level
B2 |  |  |  |  | effect on DRG neuron survival when added together with GDF-5 ([1]; E8, 48 h): synergistic or additive effects
B3 |  |  |  |  | CG neuron survival with further addition of TGF-β [2]: did not increase the effects of these cytokines beyond background levels; support of CG neuron survival by the single cytokine ([2]; at 10 ng/ml, without TGF-β): did not support CG neurons
B4 | significant effect; also recorded: promoted the survival of a very small neuron population |  | significantly increased survival of DRG neurons beyond levels maintained by the single factors | significantly augmented the promoting effect of NT-3 | 
B5 |  | approximately 35% |  | significantly augmented the promoting effect of NT-3 | 
B6 |  |  |  |  | CG neuron survival with further addition of TGF-β [2]: clearly augmented the efficacy of a non-saturating concentration of CNTF
B7 |  |  |  |  | effect on DRG neuron survival when added together with GDF-5 ([1]; E8, 48 h): synergistic or additive effects
B8 | significant effect |  |  |  | 
B9 |  | approximately 35% | significantly increased survival of DRG neurons beyond levels maintained by the single factors |  | 
B10 | significant effect |  |  |  | 
